# Laboratory results taken from the nanobody polyreactivity screen of Harvey et al. (2022).
# Test: yeast display, Sf9 membrane polyspecificity reagent, FACS + sequencing; frameworks hold sequencing errors
# Method in brief: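 Synthetic nanobody libraries on Saccharomyces cerevisiae BJ5465 were galactose-induced for 36–48 hours, stained 1 hour at 4 °C with 10% biotinylated, detergent-solubilized Sf9 membrane reagent and enriched on streptavidin microbeads. FACS then separated cells into low and high (top ~1%) gates by anti-HA (expression) and streptavidin (reagent binding) fluorescence. Genes were colony-PCR amplified, MiSeq 2 × 250 sequenced and CDR-length filtered. A clone's polyreactivity label is that of its gate of origin.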
row,Sequence,polyreactivity (PSR sort gate)
1,QVQLVESGGGLVQAGASLRLSCAASGRTFRYYDMGWSRQEPGKEREFVAAITWRGGSTYFADSVKGRFTISRDNAKNTVFLQMNSLKPEDTAVYYCATDSLRLYGGKRDLYFWGQGTQVTVSS,low polyreactivity
2,QVQLVESGGGLVQAGASLRLSCAASGRTFYNYAMGWYRQARGKEREFVASMTTSGGSTYYADSVKGRFTISRDNAKNTVYLQMNSLKPEDTAVYYCARRAYRSWTGNSYEYYYWGQGTQVTVSS,high polyreactivity
3,QVQLVESGGGLVQAGASLRLSCAASGRTSYRYAMGWNRQAPGKERELVAAISFGGGSTYYADSVKGRFPISRDNAKNTVYLQMNSLKPEDTAFYYCATDRVKYRNIYTDTGFDYWGQGTQVTVSS,high polyreactivity
4,QVQLVESGGGLVQAGASLRLSCAASGSTFARYAMGWYRQAPGKERELVAAISSSGRTYYADSVKGRFTISRDNAKNSVYLQMNSLKPEDTAVYYCNAPVARGEASYYWGQGTQVTVSS,high polyreactivity
5,QVQLVESGGGLVQAGASLRLSCAASGSTFGGNAMGWSRQAPWKERELVAAINWTGGSTYADSVKGRFTISRDNAKNTVYLQMNRLKPEDTAVYYCAIRATWGSSTQYLQNQEYDYWGQGSQVTVSS,low polyreactivity
6,QVQLVESGGGLVQAGASLRLSCAASGSTFGYYAMGWNRQAPGKERELVAAISTRGGSTYYADSVKGRFTISRDNAKTTVYLQMNSLKPEDIAVYYCAVLGTPYGLNDYCGQGTQVTVSS,high polyreactivity
7,QVQLVESGGGLVQAGASLRLSCAASGSTFLQNAMGWYRQAPGKVRELVAAITRSGGSTNYADSVKGRFKISRDNAKNTVYLQKNSLKPEDTAVYYCPAGGRRYDDDYWGQGTQVTVSS,high polyreactivity
8,QVQLVESGGGLVQAGASLRLSCAASGYTLDNYAMGWYRQAPWKERELVAGITFSGGSTFYADSVKGRFTISRDNAKNTVYLQMNRLKPEDTAVYYCAAEAEFQADHKYGYWGQGTQVTVSS,low polyreactivity
9,QVQLVESGGGLVQAGASLRLSCADSGRISESNDMGWNRQAPGKQRELVAAISSSGGSTYYADSVMGRFPISRDNAKNTVYLQMNSLKPEDTALYYCNAVYYRTVLKIGVYEYDYWGQGTQVTVSS,low polyreactivity
10,QVQLVESGGGLVQAGASLRLSCAPSGLIFTYNARGWYRQAPGKERELVAAITYRVSSTYYADSVKGRFTISRDNAKNSVYLQMNSLKPEDTAVYYCAAPRLIRFVTYYSWGLGTQVTVSS,high polyreactivity
11,QVQLVESGGGLVQAGCSLLLICADSGFIFYGYVMGWYRQAPGKEMEWVAGITSSGTSTYADSVKGRFTISRDNAKNTVFLQMNSLKPEDTAAYYCAALRRQYGARDYDYWGQGTQVTVSA,low polyreactivity
12,QVQLVESGGGLVQAGCSLLLSCAASGRSFTHNAMGWYRPAHGPERELGAAITSRGRTTYADSVKGRFTISRDNAKNTVYVQMNSLKPEDTAVYYCATSVWFPITSYDYWGQGTQVTVSS,low polyreactivity
13,QVQLVESGGGLVQAGCSLRISCAASGFIFKRNAMGWYRQAPGKERELVAAITWRGGSTYYADSVKGRFTISRDTAKNTVYLQMNSLKPEDTAVYYCAADSYYPRGYRTGWSESAYVSWGQGTLVTVSS,high polyreactivity
14,QVQLVESGGGLVQAGCSLRISCAASGSTFYINAMGWYRQAPGKERELVAAISRGGSTYYADSVKGRFTISRDNAKNTVYLQMNSLKPEDTAVYYCAADFSRSYRFNYWGQGTQVTVSS,high polyreactivity
15,QVQLVESGGGLVQAGCSLRLICAASGFIFRTYAMGWYRQAPGKESELVAAISRGGVRTYYADSVKGRFTISRDNAKNTVYLQMNSLKPEDTAVYYCAADDVHGIYDYWGQGTQVTVSS,high polyreactivity
16,QVQLVESGGGLVQAGCSLRLICAASRSTFTDNAMGWYRQAPGKESELVAAISTGTSTYADSVKGRFTISRDNATNTVYLQMNRLKPEDTAGYYCAADVGIRPLNYHPYNYWGQGTQVTVSS,low polyreactivity
17,QVQLVESGGGLVQAGCSLRLRCAASGRIYPYYAMGWYRQAPGKERELVAAIRGGGTSTRYADSVKGRFTISRDNAKKTVDLQMNSLKPSDTADYYCAAVWYSGSTRYSKYLEYYYWGQGTQVTVSS,high polyreactivity
18,QVQLVESGGGLVQAGCSLRLSCAACGFTFIPNAMGWYRQAPAKERELVAAISFGGGSTYYADSVKGRFTISRDNAKNTVYLQMNSMKPEETAVYYCAAEAFVSYEPYWYVRYYSSYNYWGQGTQVTVSS,high polyreactivity
19,QVQLVESGGGLVQAGCSLRLSCAASGFTFSYYAMGSYRQAPGKERELVASISRSGNTYYADSVKGRFTISRDNAKNTVYLQMNSLKPEDTAVYYCAAKRKSYYSYNFDYWGQGTQVTVSS,high polyreactivity
20,QVQLVESGGGLVQAGCSLRLSCAASGIIFALNAMGWYRQAPGKERELVAAISDGDSTHYADSVKGRFTISRDNAKNTVYLQMNSLKPEDTAVYYCAVDNRDLFFYPGGFDYWGQGTQVTVSS,low polyreactivity
21,QVQLVESGGGLVQAGCSLRLSCAASGITFRRYTMGWYRPAPGKERELVATISLSDGNTYYADSVKGRFTISRDNAKNTVYLQMNSLKPEDTAVYYCTADVRYGRDHWGQATQVTVSS,low polyreactivity
22,QVQLVESGGGLVQAGCSLRLSCAASGLTSTANAMGWYRQAPGKERELVAGITTGGSTYYADSVKGRFTISRDNAKNTVYLQMISLKPEDTAVYYCNAPTYADTTYDYWGQGTQVTVSS,low polyreactivity
